Assay results published in publication PMC13066097.

Target: anti-PcrV scFv conjugated with the mouse IgG1 hinge, CH2 and CH3 domains, scFv-m166-mFc (recombinant protein) (mouse)
Assay: non-reducing SDS-PAGE with immunoblot

A stoichiometry N of 2 was found for “anti-PcrV scFv conjugated with the mouse IgG1 hinge, CH2 and CH3 domains, scFv-m166-mFc (recombinant protein) (Fc fusion)” in this work.
